Test results from PMC4151078, “Visualization of the physical and functional interaction between hMYH and hRad9 by Dronpa bimolecular fluorescence complementation” (BMC Molecular Biology, 2014).

How the values were obtained:
[1] = target: T1, GST-hMYH-ΔC (amino acids 1-487) (human, UniProt Q9UIF7-1 1-487); assay: pull-down; GST or GST-hMYH fusion on glutathione-Sepharose 4B beads, purified His-hRad9 added; 50 mM Tris-HCl pH 7.5, 150 mM NaCl, 1 mM EDTA, 0.3 mM DTT, 0.1% NP-40; 3 h at 4°C; blot with anti-GST and anti-His; conditions: both partners purified
T1 construct: cloned into pGEX-4T1; source: bacterially expressed and purified
T1 sequence (looked up): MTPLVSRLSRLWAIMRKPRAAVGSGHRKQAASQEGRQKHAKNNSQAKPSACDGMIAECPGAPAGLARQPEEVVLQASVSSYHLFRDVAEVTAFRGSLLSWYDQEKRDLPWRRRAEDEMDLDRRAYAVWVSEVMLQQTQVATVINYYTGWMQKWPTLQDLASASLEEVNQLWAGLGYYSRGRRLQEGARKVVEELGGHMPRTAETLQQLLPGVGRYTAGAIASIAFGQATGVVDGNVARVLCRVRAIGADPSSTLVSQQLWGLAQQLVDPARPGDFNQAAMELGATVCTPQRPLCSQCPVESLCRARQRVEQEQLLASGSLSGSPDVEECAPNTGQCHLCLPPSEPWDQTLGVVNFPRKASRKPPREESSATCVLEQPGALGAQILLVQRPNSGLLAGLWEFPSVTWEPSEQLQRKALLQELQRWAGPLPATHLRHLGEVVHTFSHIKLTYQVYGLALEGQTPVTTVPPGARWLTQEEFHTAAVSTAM

[2] = target: T2, GST-hMYH (full-length, amino acids 1-547) (human, UniProt Q9UIF7-1 1-546); assay: as above; conditions: both partners purified
T2 construct: human MutY glycosylase homolog (hMYH), NM_012222; printed as full-length, amino acids 1-547; cloned into pGEX-4T1; also called GST-tagged hMYH wild type; source: bacterially expressed and purified
T2 sequence (looked up): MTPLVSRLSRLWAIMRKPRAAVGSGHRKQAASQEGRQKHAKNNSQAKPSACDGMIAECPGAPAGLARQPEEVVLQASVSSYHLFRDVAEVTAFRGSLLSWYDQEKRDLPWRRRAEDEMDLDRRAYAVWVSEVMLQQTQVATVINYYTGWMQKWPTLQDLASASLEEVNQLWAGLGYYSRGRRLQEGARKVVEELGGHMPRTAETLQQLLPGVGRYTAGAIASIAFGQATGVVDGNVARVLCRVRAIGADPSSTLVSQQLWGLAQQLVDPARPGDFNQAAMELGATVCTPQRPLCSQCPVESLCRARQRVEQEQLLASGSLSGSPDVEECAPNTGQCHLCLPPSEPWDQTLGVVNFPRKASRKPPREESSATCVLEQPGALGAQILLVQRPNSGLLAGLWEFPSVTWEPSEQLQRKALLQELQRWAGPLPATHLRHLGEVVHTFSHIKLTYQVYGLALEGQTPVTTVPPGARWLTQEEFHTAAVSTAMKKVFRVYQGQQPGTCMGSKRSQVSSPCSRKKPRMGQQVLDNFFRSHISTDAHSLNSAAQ

B1: His-hRad9 (natural protein, human, UniProt Q99638 1-391, looked up)
chain: MKCLVTGGNVKVLGKAVHSLSRIGDELYLEPLEDGLSLRTVNSSRSAYACFLFAPLFFQQYQAATPGQDLLRCKILMKSFLSVFRSLAMLEKTVEKCCISLNGRSSRLVVQLHCKFGVRKTHNLSFQDCESLQAVFDPASCPHMLRAPARVLGEAVLPFSPALAEVTLGIGRGRRVILRSYHEEEADSTAKAMVTEMCLGEEDFQQLQAQEGVAITFCLKEFRGLLSFAESANLNLSIHFDAPGRPAIFTIKDSLLDGHFVLATLSDTDSHSQDLGSPERHQPVPQLQAHSTPHPDDFANDDIDSYMIAMETTIGNEGSRVLPSISLSPGPQPPKSPGPHSEEEDEAEPSTVPGTPPPKKFRSLFFGSILAPVRSPQGPSPVLAEDSEGEG
notes: human Rad9 (hRad9), NM_004584; also called purified His-hRad9; His-purified hRad9 protein; source: bacterially expressed and purified
B1: binds [1]; binds [2].
